Experiments:
[1] = target: Aβ42 oligomers (UniProt P05067)
[2] = target: synthetic Aβ42 peptide (UniProt P05067)
[3] = target: Aβ42 fibrils (UniProt P05067)
[4] = target: protective protein/cathepsin A (PPCA) (UniProt P10619)
protective protein/cathepsin A (PPCA), sequence (P10619 29-480): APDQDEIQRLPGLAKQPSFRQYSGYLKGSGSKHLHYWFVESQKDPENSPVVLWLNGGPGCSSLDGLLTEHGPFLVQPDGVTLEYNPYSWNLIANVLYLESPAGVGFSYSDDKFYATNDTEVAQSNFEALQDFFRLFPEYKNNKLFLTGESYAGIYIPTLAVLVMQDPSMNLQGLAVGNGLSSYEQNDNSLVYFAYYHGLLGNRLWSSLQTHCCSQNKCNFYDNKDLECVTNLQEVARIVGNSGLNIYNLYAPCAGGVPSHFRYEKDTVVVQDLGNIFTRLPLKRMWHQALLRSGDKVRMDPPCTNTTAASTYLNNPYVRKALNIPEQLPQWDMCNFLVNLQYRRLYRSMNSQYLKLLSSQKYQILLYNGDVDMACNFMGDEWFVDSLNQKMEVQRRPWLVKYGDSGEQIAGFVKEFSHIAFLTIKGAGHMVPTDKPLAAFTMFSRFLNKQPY

cathepsin D, sequence (chain, as listed by the source): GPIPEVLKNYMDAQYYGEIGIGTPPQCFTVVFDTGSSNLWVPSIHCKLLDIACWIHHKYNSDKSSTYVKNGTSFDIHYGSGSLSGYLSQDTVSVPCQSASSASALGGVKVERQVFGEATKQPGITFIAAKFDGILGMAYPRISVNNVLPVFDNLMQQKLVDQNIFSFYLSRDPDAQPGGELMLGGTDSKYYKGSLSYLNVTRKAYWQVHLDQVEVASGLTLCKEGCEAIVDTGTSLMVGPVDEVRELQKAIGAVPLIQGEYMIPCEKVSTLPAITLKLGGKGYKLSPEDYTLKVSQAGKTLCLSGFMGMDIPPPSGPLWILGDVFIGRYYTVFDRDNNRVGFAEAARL
Aβ42 oligomers, sequence (P05067 whole entry, looked up): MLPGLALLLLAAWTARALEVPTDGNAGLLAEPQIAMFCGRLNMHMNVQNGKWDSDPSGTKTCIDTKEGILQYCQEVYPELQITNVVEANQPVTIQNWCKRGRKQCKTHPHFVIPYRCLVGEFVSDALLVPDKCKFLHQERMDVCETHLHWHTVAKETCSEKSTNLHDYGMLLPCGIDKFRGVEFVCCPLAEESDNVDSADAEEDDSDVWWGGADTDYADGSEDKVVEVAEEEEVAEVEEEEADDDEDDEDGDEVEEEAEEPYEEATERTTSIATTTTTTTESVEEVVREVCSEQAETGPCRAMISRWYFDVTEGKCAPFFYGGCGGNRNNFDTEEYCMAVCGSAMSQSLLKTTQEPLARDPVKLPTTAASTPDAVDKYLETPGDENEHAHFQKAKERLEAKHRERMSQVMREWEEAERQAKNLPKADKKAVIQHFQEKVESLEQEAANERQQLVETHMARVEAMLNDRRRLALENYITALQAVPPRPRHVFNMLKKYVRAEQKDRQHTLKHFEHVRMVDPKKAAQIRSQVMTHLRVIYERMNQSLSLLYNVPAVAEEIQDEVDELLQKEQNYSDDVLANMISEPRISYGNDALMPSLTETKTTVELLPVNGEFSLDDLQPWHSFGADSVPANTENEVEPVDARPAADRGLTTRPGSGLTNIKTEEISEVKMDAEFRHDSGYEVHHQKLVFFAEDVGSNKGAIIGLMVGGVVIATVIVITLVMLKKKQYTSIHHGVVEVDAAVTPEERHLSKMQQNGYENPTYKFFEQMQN
synthetic Aβ42 peptide, sequence (P05067 whole entry, looked up, tested part not stated): as the sequence (P05067 whole entry, looked up) above
Aβ42 fibrils, sequence (P05067 whole entry, looked up): as above
cathepsin L, sequence (chain, as listed by the source): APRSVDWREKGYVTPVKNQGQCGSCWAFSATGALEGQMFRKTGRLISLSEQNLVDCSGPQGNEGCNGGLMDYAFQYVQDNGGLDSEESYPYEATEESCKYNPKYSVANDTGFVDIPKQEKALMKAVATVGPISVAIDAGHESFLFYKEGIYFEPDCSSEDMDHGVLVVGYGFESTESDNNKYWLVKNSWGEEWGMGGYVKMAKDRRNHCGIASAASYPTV

| Substance | western blot (A11) of day 9 Aβ42 oligomers after overnight treatment with 90 ng enzyme [1] | western blot of Aβ42 treated with cathepsin B [2] | western blot (E610) of day 9 Aβ42 fibrils after overnight treatment with 90 ng enzyme [3] | THT assay and western blot of Aβ42 treated with cathepsin D [2] | activation of cathepsin A (enzyme activity) [4] |
| --- | --- | --- | --- | --- | --- |
| cathepsin B | did not reveal changes in intensity or size of oligomer band (lines 5, 6) | cathepsin B prevents aggregation of low molecular weight Aβ42 species and degrades Aβ42 monomers in a time dependent manner | resulted in weak reduction/degradation of the fibril smear (line 5 compared to line 2) |  |  |
| cathepsin D | did not reveal changes in intensity or size of oligomer band (lines 5, 6) |  | did not result in visible reduction/degradation of fibril smear or oligomer bands | strong prevention of aggregation of Aβ42 species, measured by THT; complete elimination Aβ42 monomers |  |
| cathepsin L |  |  |  |  | Activation of 90 ng cathepsin A by cathepsin L |
